In the supplement of paper PMC9112550, “Optimization of the antimicrobial peptide Bac7 by deep mutational scanning” (BMC Biology, 2022):

system: Escherichia coli TOP10; assay: shrunken log2 fold change of peptide-encoding DNA abundance (4.5 h post-induction vs induction); higher = less antimicrobial activity (less host growth inhibition); settings: time post-induction: 4.5 h; library: site-saturation at positions 5, 18, 19, 20
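Further: peptides expressed intracellularly from a pBAD plasmid library in pooled LB shake-flask culture, induced with 0.3% L-arabinose, DNA abundance read by NGS, three biological replicates, DESeq2 with apeglm shrinkage.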

| Sequence | shrunken log2 fold change |
| --- | --- |
| RRIRTRPPRLPRPRPRPFHWPRP | 0.036 |
| RRIRTRPPRLPRPRPRPFIFPRP | -0.447 |
| RRIRTRPPRLPRPRPRPFITPRP | -0.689 |
| RRIRTRPPRLPRPRPRPFIWPRP | -0.485 |
| RRIRTRPPRLPRPRPRPFKSPRP | -0.0217 |
| RRIRTRPPRLPRPRPRPFKVPRP | 0.0475 |
| RRIRTRPPRLPRPRPRPFLDPRP | -0.553 |
| RRIRTRPPRLPRPRPRPFLIPRP | -0.378 |
| RRIRTRPPRLPRPRPRPFMIPRP | -0.0265 |
| RRIRTRPPRLPRPRPRPFPVPRP | -0.177 |
| RRIRTRPPRLPRPRPRPFSHPRP | -0.399 |
| RRIRTRPPRLPRPRPRPFTDPRP | 0.00943 |
| RRIRTRPPRLPRPRPRPFTWPRP | -0.308 |
| RRIRTRPPRLPRPRPRPFWIPRP | -0.34 |
| RRIRTRPPRLPRPRPRPFWNPRP | -0.104 |
| RRIRTRPPRLPRPRPRPFYEPRP | -0.518 |
| RRIRTRPPRLPRPRPRPFYKPRP | -0.6 |
| RRIRTRPPRLPRPRPRPFYQPRP | -0.65 |
| RRIRTRPPRLPRPRPRPFYWPRP | -0.348 |
| RRIRTRPPRLPRPRPRPGACPRP | -0.234 |
| RRIRTRPPRLPRPRPRPGEMPRP | 0.136 |
| RRIRTRPPRLPRPRPRPGGWPRP | 1.23 |

| Sequence | shrunken log2 fold change |
| --- | --- |
| RRIRTRPPRLPRPRPRPGIQPRP | 0.131 |
| RRIRTRPPRLPRPRPRPGKDPRP | 0.0234 |
| RRIRTRPPRLPRPRPRPGLWPRP | 0.521 |
| RRIRTRPPRLPRPRPRPGMSPRP | -0.352 |
| RRIRTRPPRLPRPRPRPGNGPRP | -0.222 |
| RRIRTRPPRLPRPRPRPGPWPRP | 0.215 |
| RRIRTRPPRLPRPRPRPGQEPRP | -0.184 |
| RRIRTRPPRLPRPRPRPGQFPRP | -0.182 |
| RRIRTRPPRLPRPRPRPGQSPRP | -0.267 |
| RRIRTRPPRLPRPRPRPGRIPRP | -0.171 |
| RRIRTRPPRLPRPRPRPGRWPRP | 0.393 |
| RRIRTRPPRLPRPRPRPGSCPRP | 0.083 |
| RRIRTRPPRLPRPRPRPGSPPRP | 0.0989 |
| RRIRTRPPRLPRPRPRPGSWPRP | 0.844 |
| RRIRTRPPRLPRPRPRPGTHPRP | -0.0792 |
| RRIRTRPPRLPRPRPRPGTIPRP | -0.0982 |
| RRIRTRPPRLPRPRPRPGVMPRP | 0.0539 |
| RRIRTRPPRLPRPRPRPGWEPRP | 0.0505 |
| RRIRTRPPRLPRPRPRPGWWPRP | 0.158 |
| RRIRTRPPRLPRPRPRPGYEPRP | -0.0417 |
| RRIRTRPPRLPRPRPRPGYNPRP | -0.957 |
| RRIRTRPPRLPRPRPRPHAKPRP | 0.0187 |

| Sequence | shrunken log2 fold change |
| --- | --- |
| RRIRTRPPRLPRPRPRPHANPRP | -0.254 |
| RRIRTRPPRLPRPRPRPHAQPRP | 0.211 |
| RRIRTRPPRLPRPRPRPHDFPRP | 0.0369 |
| RRIRTRPPRLPRPRPRPHDMPRP | 0.000904 |
| RRIRTRPPRLPRPRPRPHFKPRP | -0.307 |
| RRIRTRPPRLPRPRPRPHHLPRP | 0.0331 |
| RRIRTRPPRLPRPRPRPHIPPRP | -0.769 |
| RRIRTRPPRLPRPRPRPHIRPRP | -0.271 |
| RRIRTRPPRLPRPRPRPHKHPRP | -0.417 |
| RRIRTRPPRLPRPRPRPHLPPRP | 0.236 |
| RRIRTRPPRLPRPRPRPHMCPRP | -0.195 |
| RRIRTRPPRLPRPRPRPHNEPRP | -0.581 |
| RRIRTRPPRLPRPRPRPHPPPRP | 0.271 |
| RRIRTRPPRLPRPRPRPHPYPRP | 0.0733 |
| RRIRTRPPRLPRPRPRPHVHPRP | -0.511 |
| RRIRTRPPRLPRPRPRPHVQPRP | -0.156 |
| RRIRTRPPRLPRPRPRPHVVPRP | -0.0414 |
| RRIRTRPPRLPRPRPRPHWFPRP | -0.132 |
| RRIRTRPPRLPRPRPRPHWLPRP | 0.122 |
| RRIRTRPPRLPRPRPRPHYIPRP | -0.105 |
| RRIRTRPPRLPRPRPRPIALPRP | -0.156 |
| RRIRTRPPRLPRPRPRPIATPRP | 0.227 |

| Sequence | shrunken log2 fold change |
| --- | --- |
| RRIRTRPPRLPRPRPRPICGPRP | 0.0749 |
| RRIRTRPPRLPRPRPRPIDFPRP | 0.0107 |
| RRIRTRPPRLPRPRPRPIDSPRP | -0.162 |
| RRIRTRPPRLPRPRPRPIFDPRP | -0.337 |
| RRIRTRPPRLPRPRPRPIGAPRP | 0.089 |
| RRIRTRPPRLPRPRPRPIGKPRP | 0.0128 |
| RRIRTRPPRLPRPRPRPIGLPRP | -0.115 |
| RRIRTRPPRLPRPRPRPIHRPRP | -0.00127 |
| RRIRTRPPRLPRPRPRPIIAPRP | 0.00466 |
| RRIRTRPPRLPRPRPRPIICPRP | -0.121 |
| RRIRTRPPRLPRPRPRPIITPRP | -0.645 |
| RRIRTRPPRLPRPRPRPIKDPRP | -0.104 |
| RRIRTRPPRLPRPRPRPIKYPRP | 4.24 |
| RRIRTRPPRLPRPRPRPINMPRP | -0.0135 |
| RRIRTRPPRLPRPRPRPIPIPRP | -0.0307 |
| RRIRTRPPRLPRPRPRPIQFPRP | -0.0251 |
| RRIRTRPPRLPRPRPRPIRAPRP | -0.0672 |
| RRIRTRPPRLPRPRPRPIRHPRP | -0.438 |
| RRIRTRPPRLPRPRPRPIRIPRP | -0.202 |
| RRIRTRPPRLPRPRPRPISMPRP | -0.262 |
| RRIRTRPPRLPRPRPRPISRPRP | -0.0253 |
| RRIRTRPPRLPRPRPRPITPPRP | -0.237 |

| Sequence | shrunken log2 fold change |
| --- | --- |
| RRIRTRPPRLPRPRPRPITWPRP | -0.252 |
| RRIRTRPPRLPRPRPRPIVDPRP | 0.0147 |
| RRIRTRPPRLPRPRPRPIWEPRP | -0.178 |
| RRIRTRPPRLPRPRPRPIWIPRP | -0.00704 |
| RRIRTRPPRLPRPRPRPIWLPRP | -0.201 |
| RRIRTRPPRLPRPRPRPIWVPRP | -0.0869 |
| RRIRTRPPRLPRPRPRPIWYPRP | -0.601 |
| RRIRTRPPRLPRPRPRPIYAPRP | 0.0866 |
| RRIRTRPPRLPRPRPRPIYQPRP | -0.364 |
| RRIRTRPPRLPRPRPRPKACPRP | 0.0653 |
| RRIRTRPPRLPRPRPRPKCLPRP | -0.0528 |
| RRIRTRPPRLPRPRPRPKDGPRP | -0.0362 |
| RRIRTRPPRLPRPRPRPKDIPRP | -0.482 |
| RRIRTRPPRLPRPRPRPKDQPRP | -0.0284 |
| RRIRTRPPRLPRPRPRPKEHPRP | -0.174 |
| RRIRTRPPRLPRPRPRPKEQPRP | 0.0592 |
| RRIRTRPPRLPRPRPRPKFQPRP | 0.114 |
| RRIRTRPPRLPRPRPRPKFYPRP | -0.272 |
| RRIRTRPPRLPRPRPRPKGMPRP | 0.138 |
| RRIRTRPPRLPRPRPRPKHCPRP | -0.0769 |
| RRIRTRPPRLPRPRPRPKHGPRP | -0.0288 |
